Assay results taken from patent US20200173986A1.

How the values were obtained:
[1] = target: endogenous SNAP25 in total cell lysate; test: sandwich ELISA with total cell lysate, negative control
[2] = target: endogenous SNAP25 in total cell lysate; test: as above; remark: listed apart in the source
[3] = target: endogenous SNAP25 in total cell lysate; test: as above; remark: listed apart in the source
[4] = target: endogenous SNAP25 in total cell lysate; test: sandwich ELISA with total cell lysate, positive control
[5] = target: endogenous SNAP25 in total cell lysate; test: as above; remark: listed apart in the source
[6] = target: endogenous SNAP25 in total cell lysate; test: as above; remark: listed apart in the source

endogenous SNAP25 in total cell lysate, sequence (P60879 whole entry): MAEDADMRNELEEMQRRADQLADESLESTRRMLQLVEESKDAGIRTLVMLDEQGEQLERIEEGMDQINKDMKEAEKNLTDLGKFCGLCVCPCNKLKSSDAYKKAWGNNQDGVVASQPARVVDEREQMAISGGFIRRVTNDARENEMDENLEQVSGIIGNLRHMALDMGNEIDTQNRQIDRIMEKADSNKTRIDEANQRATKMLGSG

NC was tested, and the ELISA signal (A450) [1] was 0.213, the ELISA signal (A450) [2] was 0.125 and the ELISA signal (A450) [3] was 0.27.

Work on PC yielded an ELISA signal (A450) [4] of 2.5, an ELISA signal (A450) [5] of 3.49 and an ELISA signal (A450) [6] of 2.77.
